The source of these data is US20260152527A1 (SIGHTSTREAM BIOTHERAPEUTICS, published 2026).

The labels stand for the following.
B1: KR-062 (peptide)
peptide: HyPA-[Nle][Lys(N3)]H[dF]RW[Pra]K-NH2
modifications: triazole 2-7; not fully specified; printed as HyPA-Nle-[Lys(N3)-His-DPhe-Arg-Trp-Pra]-Lys-NH2
B2: KR-043 (peptide)
peptide: Ac-[Nle][Lys(N3)][NMeH][dF]RW[Pra]-NH2
modifications: triazole 2-7
B3: KR-048 (peptide)
peptide: Ac-[Nle][Lys(N3)]H[dPhe(4-CF3)]RW[Pra]-NH2
modifications: triazole 2-7
B4: KR-038 (peptide)
peptide: Ac-[Nle][R5]H[dF]RW[S5]-NH2
modifications: staple 2-7
SMILES: CCCC[C@H](NC(C)=O)C(=O)N[C@]1(C)CCCC=CCCC[C@@](C)(C(N)=O)NC(=O)[C@H](Cc2c[nH]c3ccccc23)NC(=O)[C@H](CCCNC(=N)N)NC(=O)[C@@H](Cc2ccccc2)NC(=O)[C@H](Cc2c[nH]cn2)NC1=O
B5: KR-056 (peptide)
peptide: Ac-[Nle][Lys(N3)]H[dF]RW[Pra]N-NH2
modifications: triazole 2-7; not fully specified; printed as Ac-Nle-[Lys(N3)-His-DPhe-Arg-Trp-Pra]-Asn-NH2
B6: KR-058 (peptide)
peptide: Ac-[Nle][Lys(N3)]H[dTyr(Me)]RW[Pra]K-NH2
modifications: triazole 2-7; not fully specified; printed as Ac-Nle-[Lys(N3)-His-DTyr(Me)-Arg-Trp-Pra]-Lys-NH2
B7: KR-060 (peptide)
peptide: Ac-[Nle][Lys(N3)]H[dF]R[Trp(1-Me)][Pra]K-NH2
modifications: triazole 2-7; not fully specified; printed as Ac-Nle-[Lys(N3)-His-DPhe-Arg-Trp(Me)-Pra]-Lys-NH2
B8: KR-005 (peptide)
peptide: Ac-SYSMEHFRWGKP-NH2
B9: KR-042 (peptide)
peptide: XXHFRWX
modifications: Ac-Nle-[Dab(N3)-His-DPhe-Arg-Trp-Dab(N3)] linkr: 3,3′-Oxybis[1-propyne]-NH2
B10: KR-054 (peptide)
peptide: Ac-[Nle][Lys(N3)]H[dF][hArg]W[Pra]K-NH2
modifications: triazole 2-7; not fully specified; printed as Ac-Nle-[Lys(N3)-His-DPhe-HArg-Trp-Pra]-Lys-NH2
B11: KR-039 (peptide)
peptide: Ac-[Nle][S5]H[dF]RW[S5]-NH2
modifications: staple 2-7
B12: KR-045 (peptide)
peptide: Ac-[Nle][Lys(N3)]H[dF][NMeR]W[Pra]-NH2
modifications: triazole 2-7
B13: KR-044 (peptide)
peptide: Ac-[Nle][Lys(N3)]H[dNMeF]RW[Pra]-NH2
modifications: triazole 2-7

Starred links: 1 amine or outer side, 2 acyl side, 3 side chain; linkers in the order of their positions; H or OH if unused. Positions of bridges follow the written chain, without caps; N, C: chain ends. Non-standard residues stand in square brackets, D forms with d. *: point of attachment. HyPA = 3,5-dihydroxyphenylacetic acid (N-terminal cap), O=C(Cc1cc(O)cc(O)c1)*; dTyr(Me) = O-methyl-D-tyrosine, COc1ccc(C[C@@H](N[*:1])C(=O)[*:2])cc1; dPhe(4-CF3) = N[C@H](Cc1ccc(C(F)(F)F)cc1)C(=O)O; Trp(1-Me) = Cn1cc(C[C@H](N)C(=O)O)c2ccccc21; Lys(N3) = [N-]=[N+]=NCCCC[C@H](N)C(=O)O; NMeH = CN[C@@H](Cc1c[nH]cn1)C(=O)O; NMeR = CN[C@@H](CCCNC(=N)N)C(=O)O; dNMeF = CN[C@H](Cc1ccccc1)C(=O)O; hArg = N=C(N)NCCCC[C@H](N)C(=O)O; R5 = C=CCCC[C@@](C)(N)C(=O)O; S5 = C=CCCC[C@](C)(N)C(=O)O; Nle = CCCC[C@H](N)C(=O)O; Pra = C#CC[C@H](N)C(=O)O

human recombinant MC5R (CHO-K1/Ga15 stable cell line, GenScript), sequence (P33032 whole entry): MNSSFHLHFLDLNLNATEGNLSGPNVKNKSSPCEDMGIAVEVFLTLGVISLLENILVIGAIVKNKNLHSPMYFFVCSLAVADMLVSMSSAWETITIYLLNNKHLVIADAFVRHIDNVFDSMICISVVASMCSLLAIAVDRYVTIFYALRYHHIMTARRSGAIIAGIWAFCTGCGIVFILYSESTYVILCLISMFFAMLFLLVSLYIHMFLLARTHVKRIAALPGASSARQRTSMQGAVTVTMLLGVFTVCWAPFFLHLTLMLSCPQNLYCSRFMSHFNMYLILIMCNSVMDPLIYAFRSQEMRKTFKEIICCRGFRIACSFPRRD

For one assay, the target named is human recombinant MC4R (CHO-K1/Gα15 stable cell line, GenScript) (human, UniProt P32245 1-332). The experiment in a line: cell-based or functional assay.
human recombinant MC4R (CHO-K1/Gα15 stable cell line, GenScript), sequence (P32245 whole entry): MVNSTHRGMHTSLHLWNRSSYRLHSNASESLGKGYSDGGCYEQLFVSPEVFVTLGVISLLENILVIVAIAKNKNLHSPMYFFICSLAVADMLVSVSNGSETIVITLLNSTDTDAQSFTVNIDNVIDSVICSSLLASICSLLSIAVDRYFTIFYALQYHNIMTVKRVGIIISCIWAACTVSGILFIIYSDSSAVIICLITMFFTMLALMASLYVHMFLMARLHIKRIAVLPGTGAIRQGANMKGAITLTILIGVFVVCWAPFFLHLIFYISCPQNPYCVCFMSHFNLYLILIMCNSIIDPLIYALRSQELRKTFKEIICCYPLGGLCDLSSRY
In the case of B1, the “MC4R IC50” value was 44.4 nM.

Turning to B2, the “MC4R IC50” value amounted to 31.4 nM.

Regarding B3, the “MC4R IC50” value is 183 nM.

B4: the “MC4R IC50” value is 74 nM.

Take B5: the “MC4R IC50” value is 23.1 nM.

Take B6: the “MC4R IC50” value was determined as 122 nM.

B7: the “MC4R IC50” value is 67.6 nM.

Consider B8, for which the “MC4R IC50” value worked out at 67 nM.

As for B9, the “MC4R IC50” value came to 109 nM.

Turning to B10, the “MC4R IC50” value came to 31.9 nM.

In the case of B11, the “MC4R IC50” value was 35.4 nM.

On to B12, for which the “MC4R IC50” value was found to be 40.3 nM.

On to B13, for which the “MC4R IC50” value was 238 nM.

The target of the next assay is human recombinant MC1R (CHO-K1 stable cell line, GenScript) (human, UniProt Q01726 1-317). The experiment in a line: cell-based or functional assay.
human recombinant MC1R (CHO-K1 stable cell line, GenScript), sequence (Q01726 whole entry): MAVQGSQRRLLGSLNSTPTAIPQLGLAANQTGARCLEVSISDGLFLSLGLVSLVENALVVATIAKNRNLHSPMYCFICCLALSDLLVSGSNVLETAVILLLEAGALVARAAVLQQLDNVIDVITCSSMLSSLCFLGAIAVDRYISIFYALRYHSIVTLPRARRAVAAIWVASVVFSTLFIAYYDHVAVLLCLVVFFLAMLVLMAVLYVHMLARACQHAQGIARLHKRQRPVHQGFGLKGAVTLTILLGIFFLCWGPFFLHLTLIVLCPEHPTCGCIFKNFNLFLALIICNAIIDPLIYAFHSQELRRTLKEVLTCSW
As to B1, the “MC1R IC50” value amounted to 0.03 nM.

B2: the “MC1R IC50” value came to 0.15 nM.

As for B3, the “MC1R IC50” value is 0.18 nM.

B4: the “MC1R IC50” value is above 50 nM.

Turning to B5, the “MC1R IC50” value was determined as 0.052 nM.

For B6, the “MC1R IC50” value came out at 2.68 nM.

Regarding B7, the “MC1R IC50” value stood at 0.79 nM.

With B8, the “MC1R IC50” value turned out to be 0.093 nM.

Consider B9, for which the “MC1R IC50” value was found to be 0.16 nM.

B10: the “MC1R IC50” value is 0.093 nM.

As for B11, the “MC1R IC50” value amounted to 1.95 nM.

In the case of B12, the “MC1R IC50” value amounted to 0.48 nM.

Take B13: the “MC1R IC50” value is above 50 nM.

In another assay the target is human recombinant MC3R (CHO-K1/Gα15 stable cell line, GenScript) (human, UniProt P41968 1-323). The experiment in a line: cell-based or functional assay.
human recombinant MC3R (CHO-K1/Gα15 stable cell line, GenScript), sequence (P41968 whole entry): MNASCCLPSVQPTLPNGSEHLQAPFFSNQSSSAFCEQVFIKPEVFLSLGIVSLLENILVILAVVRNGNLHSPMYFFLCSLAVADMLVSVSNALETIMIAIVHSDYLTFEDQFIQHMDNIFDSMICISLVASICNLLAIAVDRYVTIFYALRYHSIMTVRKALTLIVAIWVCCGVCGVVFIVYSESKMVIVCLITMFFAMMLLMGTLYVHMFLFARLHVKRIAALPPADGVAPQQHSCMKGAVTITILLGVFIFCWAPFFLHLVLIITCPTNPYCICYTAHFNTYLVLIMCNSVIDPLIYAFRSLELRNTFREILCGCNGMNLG
For the molecule B1, the “MC3R IC50” value was found to be 13 nM.

On to B2, for which the “MC3R IC50” value came to 61.6 nM.

For the molecule B3, the “MC3R IC50” value was above 50000 nM.

On to B4, for which the “MC3R IC50” value turned out to be 20000 nM.

For the molecule B5, the “MC3R IC50” value amounted to 66.5 nM.

As for B6, the “MC3R IC50” value is above 50000 nM.

In the case of B7, the “MC3R IC50” value was 260 nM.

As to B8, the “MC3R IC50” value was found to be 149 nM.

Regarding B9, the “MC3R IC50” value is 225 nM.

B10: the “MC3R IC50” value stood at 67.8 nM.

Turning to B11, the “MC3R IC50” value was 426 nM.

For B12, the “MC3R IC50” value was above 50000 nM.

With B13, the “MC3R IC50” value was above 50000 nM.

The next assay concerns the target human recombinant MC5R (CHO-K1/Ga15 stable cell line, GenScript) (human, UniProt P33032 1-325). The experiment in a line: cell-based or functional assay.
Turning to B1, the “MC5R IC50” value amounted to 167 nM.

Take B2: the “MC5R IC50” value stood at 86 nM.

On to B3, for which the “MC5R IC50” value came to 48.8 nM.

For the molecule B4, the “MC5R IC50” value is 5090 nM.

Regarding B5, the “MC5R IC50” value is 69.6 nM.

As for B6, the “MC5R IC50” value was 195 nM.

Consider B7, for which the “MC5R IC50” value amounted to 319 nM.

As to B8, the “MC5R IC50” value is 79.8 nM.

In the case of B9, the “MC5R IC50” value stood at 237 nM.

Consider B10, for which the “MC5R IC50” value was found to be 82.3 nM.

Regarding B11, the “MC5R IC50” value stood at 739 nM.

Take B12: the “MC5R IC50” value worked out at 191 nM.

Consider B13, for which the “MC5R IC50” value is 2300 nM.
